Article PMC4355918

Biological target: hnRNP C1 (UniProt P07910-2 1-293)
Experiment: filter binding

B1: MALAT1 2,577-U (structured_RNA)
RNA: AACUUAAUGUUUUUGCAUUGGUCUUUGAGUUA
- binding signal: ~4 fold stronger than N1
